Series [1] concerns Aeromonas hydrophila. The series can be described thus: Inhibitory zone of Peocin on solid medium containing pathogen. The conditions noted are these: solid medium containing strain 10^6 CFU/ml. In kind it is cell-based. From the text:
(§1) Following pathogens were subjected in the test. Six aquaculture pathogen: Aeromonas hydrophila, Vibrio vulnificus, Vibrio alginolyticus, Vibrio parahaemolyticus, Streptococcus agalactiae and Debaryomyces hansenii. Five foodborne pathogen which cause food rot and food poisoning: Staphylococcus aureus, Methicillin-resistant Staphylococcus aureus (MRSA), Escherichia coli, Salmonella typhimurium and Listeria monocytogenes. Two clinical infectious pathogens: Pseudomonas aeruginosa and Burkholderia gladioli causing leaf spot disease. Culture these strains separately and create solid medium containing these strains (10^6 CFU/ml). Add antibacterial protein after solid medium solidifies, then measure the antibacterial activity and inhibitory zone diameter.

Series [2] deals with Burkholderia gladioli. The series is described as above. It is filed as cell-based. The conditions noted are these: solid medium containing strain 10^6 CFU/ml.
Excerpt: as §1

Series [3] deals with Debaryomyces hansenii. The description is as above. In kind it is cell-based. Particulars: solid medium containing strain 10^6 CFU/ml.
Excerpt: as §1

Series [4] has as its system Escherichia coli. Described as above. In kind it is cell-based. Particulars: solid medium containing strain 10^6 CFU/ml.
Excerpt: as §1

For series [5], the system named is Listeria monocytogenes. The description is as above. Particulars: solid medium containing strain 10^6 CFU/ml. In kind it is cell-based.
Excerpt: as §1

For series [6], the system named is Methicillin-resistant Staphylococcus aureus (MRSA). The description is as above. It is filed as cell-based. The conditions noted are these: solid medium containing strain 10^6 CFU/ml.
Excerpt: as §1

In series [7] the test system is Pseudomonas aeruginosa. Described as above. In kind it is cell-based. Particulars: solid medium containing strain 10^6 CFU/ml.
Excerpt: as §1

The subject of series [8] is Salmonella typhimurium. Described as above. Particulars: solid medium containing strain 10^6 CFU/ml. It is filed as cell-based.
Excerpt: as §1

In series [9] the test system is Staphylococcus aureus. The series is described as above. In kind it is cell-based. The conditions noted are these: solid medium containing strain 10^6 CFU/ml.
Excerpt: as §1

Series [10] deals with Streptococcus agalactiae. The description is as above. It is filed as cell-based. Particulars: solid medium containing strain 10^6 CFU/ml.
Excerpt: as §1

Series [11] deals with Vibrio alginolyticus. The series is described as above. In kind it is cell-based. The conditions noted are these: solid medium containing strain 10^6 CFU/ml.
Excerpt: as §1

The subject of series [12] is Vibrio parahaemolyticus. The description is as above. The conditions noted are these: solid medium containing strain 10^6 CFU/ml. In kind it is cell-based.
Excerpt: as §1

The test system of series [13] is Vibrio vulnificus. The description is as above. The conditions noted are these: solid medium containing strain 10^6 CFU/ml. It is filed as cell-based.
Excerpt: as §1

Series [14] relates to E. coli. The series can be described thus: Evaluation of antibacterial protein temperature tolerance. It is filed as physicochemical. The conditions noted are these: 30, 40, 50, 60, 70, 80, 90, 100 and 121° C. for 1 hour; control 4° C. The method, then: Place 100 μl Peocin under 30° C., 40° C., 50° C., 60° C., 70° C., 80° C., 90° C., 100° C. and 121° C. respectively and stand for an hour, all treatment group except 121° C. group is put in the dry bath incubator, which can set to temperature 30° C.˜100° C. The 121° C. group is put in the sterilizer which can proceed wet heat sterilize at 121° C. Use Peocin stored under 4° C. as control group, and use the TSB agar plate containing E. coli to measure antibacterial activity and inhibitory zone diameter after an hour.

Series [15] concerns E. coli. The series can be described thus: Antibacterial activity of purified antibacterial protein (Resazurin reduction assay). It is filed as cell-based. The conditions noted are these: compared with the unpurified culture supernatant. Here is the method:
Antibacterial activity is evaluated by using Resazurin reduction assay. The Resazurin reduction assay is used to determine bacteria or cell activity, based on its reaction with mitochondria NADH dehydrogenase, which reduces the original dark blue Resazurin into pink Resorufin. Dilute the indicator bacterial strain E. coli cultured in advance to 1×10^7 CFU/ml and prepare 0.25 mg/ml Resazurin dye for following experiment. 96-well plate was divided into groups of three well as a triplication of one sample set; the total being 21 sets and every well was added with 60 μl TSB medium, 10 μl Resazurin dye, 10 μl indicator strain and 20 μl sample (total 100 μl). The aforementioned 20 μl sample is prepared by adding 0, 1, 2, . . . 20 μl of sample medium respectively, then use TSB medium to fill the total sample volume to 20 μl. Place the sample added 96-well plate in 37° C. incubation box for 12 hours and observe the results. Antibacterial unit (AU) is determined by Resazurin assay, whereas the minimum amount of sample medium required to inhibit color change is 1AU. The antibacterial activity of sampled culture in each time point is represented by how many AU there is in 1 ml of medium.
Take 500 μl liquid bacteria from −80° C. preserved NPUST-1 strain, add it to 50 ml TSB broth culture and culture it for 24 hours under 28° C. for activation. […]
(In general: Alamar Blue is a resazurin reagent that responds to reducing activity.)

Series [16] has as its system E. coli. The series can be described thus: Antibacterial activity of Peocin expressed in E. coli BL21 (DE3)/pET-28-peocin. In kind it is cell-based. The method, then:
Add 30 μl E. coli BL21 (DE3)/pET-28-peocin bacterial liquid and 3 μl Kanamycin (100 mg/ml) to 3 ml LB culture broth and incubate for 24 hours. After incubation, add 0.5 ml medium and 50 μl Kanamycin (100 mg/ml) in 50 ml LB culture broth, incubate for 3 hours and add 50 μl 1M IPTG to induce expression of high-level production of protein. Incubate for 9 hours, measure the OD600 nm absorbance of bacterial broth, concentrate the bacterial liquid to OD600 nm=60/ml, wash with 1×PBS for once, place the bacterial broth in centrifuge and centrifuge it for 15 minutes with the speed of 1300 rpm. Remove the supernatant, add 2 ml 1×PBS and lyse by ultrasonic machine under 5 seconds on/5 seconds off cycle for 5 minutes, then again place the bacterial broth in centrifuge and centrifuge it for 20 minutes under 4° C. with the speed of 4000 rpm. Extract the supernatant and filter it using 0.45 μm syringe filter, then preserve the sample in 4° C. freezer to await for further steps. Load E. coli BL21 (DE3)/pET-28 and E. coli BL21 (DE3)/pET-28-peocin in the same SDS-PAGE to confirm that the transformed plasmid do express antibacterial protein in high-level production, then test antibacterial activity and measure inhibitory zone of E. coli BL21 (DE3)/pET-28 and E. coli BL21 (DE3)/pET-28-peocin protein sample on TSB medium containing E. coli to confirm the antibacterial ability of expressed protein.

From patent US10689421B2, “Bacteriocin-producing Paenibacillus ehimensis and application thereof” (National Pingtung University of Science and Technology, priority 2018, dated 2020) come the findings set out here.

B1: Peocin: bacteriocin; DNA starvation/stationary phase protection protein produced by Paenibacillus ehimensis NPUST-1, amino acid SEQ ID NO: 1 (protein, listed as Paenibacillus ehimensis)
chain: MNEQLTVLLNNQIANWSVLYVKLHNYHWYVKGPQFFTLHTKFEELYTEAALHVDALAERLLALGGKPVATMSGSLRLASVREAEGEESAERMVAALVNDFTLIIGELKSGMKYAESVQDETTGDLLLAIHSSLEKHVWMLNAFLGN
For the molecule B1, the “Diameter of inhibitory zone” value in [1] amounted to 1.3 ± 0.00 cm; in series [2] it was 1.5 ± 0.05 cm; in series [3], 1.3 ± 0.00 cm; in series [4], 1.4 ± 0.00 cm; in series [5] it was 1.0 ± 0.05 cm; in series [6], 1.1 ± 0.05 cm. The “Diameter of inhibitory zone” value in series [7] amounted to 1.2 ± 0.00 cm; in series [8], 1.1 ± 0.05 cm; in series [9] it was 1.1 ± 0.05 cm; in series [10], 1.4 ± 0.00 cm; in series [11], 1.1 ± 0.03 cm; in series [12], 1.2 ± 0.03 cm. The “Diameter of inhibitory zone” value in [13] came out at 1.3 ± 0.00 cm. Further, the “antibacterial activity after temperature treatment” value in series [14] is “maintain original antibacterial activity”. Further, in [15], the “antibacterial activity after preliminary purification” value is on record as “significantly higher”. In series [16] (inside E. coli BL21 (DE3)/pET-28-peocin after induction), the “antibacterial activity when expressed in E. coli” value is reported as “no antibacterial activity”. Besides, the “antibacterial activity of recombinant protein released outside of E. coli” value in series [16] (supernatant of lysed E. coli BL21 (DE3)/pET-28-peocin, TSB medium containing E. coli) is listed as “antibacterial effect”.
